Test results published in PMC12186257, “Serendipitous and Systematic Chemoproteomic Discovery of MBLAC2, HINT1, and NME1‑4 Inhibitors from Histone Deacetylase-Targeting Pharmacophores” (ACS Chemical Biology, 2025).

Substrate: Nc1ncnc2c1ncn2[C@@H]1O[C@H](COP(=O)(O)NCCc2c[nH]c3ccccc23)[C@@H](O)[C@H]1O
Assay: HINT1 enzyme activity assay (TrpA hydrolysis, fluorescence)
Assay type: biochemical, human
Conditions: other: substrate of hHint1
Source text: While the biologically relevant substrates of HINT1 have not been clearly elucidated, the protein has been implicated in opioid receptor signaling, − regulation of the melanoma-associated transcription factor MITF, , and DNA damage repair. These functions position HINT1 as a potential pharmacological target for treating conditions such as opioid resistance or melanoma. The only reported HINT1-targeting pharmacophores are nucleoside-based nonhydrolyzable substrate analogs, such as the carbamate TrpGC (Figure a). , We evaluated the inhibitory potential of KV-24 and KV-30 in enzyme activity assays using recombinant HINT1. […]
Mouse brain proteomics – LC-MS/MS. […] 10 µg of peptide mix was injected and analyzed using a 58 min gradient starting at 1% B up to 45% B (1 h method). […]
Mouse proteomics data analysis. The data files were analyzed with DIA-NN 1.8.1. […] The resulting protein group tables were further analyzed by Perseus 1.6.2.2. […]
CME of transferrin and confocal microscopy analyses.For transferrin uptake experiments HeLa cells were seeded on Matrigel-coated coverslips, and incubated with 0.1 % DMSO, or with 100 µM dynasore, 20 µM KV50, 2 µM KV65, or 2 µM KV79 in media containing 10% FCS at 37°C for 20 h. […] All inhibitor treatments were performed in duplicate, to enable quantification of surface levels of transferrin receptors, and to assess the capability of transferrin receptor endocytosis. […]

B1: recombinant HINT1 (hHint1) (Homo sapiens) (protein)
chain: MADEIAKAQVARPGGDTIFGKIIRKEIPAKIIFEDDRCLAFHDISPQAPTHFLVIPKKHISQISVAEDDDESLLGHLMIVGKKCAADLGLNKGYRMVVNEGSDGGQSVYHVHLHVLGGRQMHWPPG
Km: 0.139 µM
